Test results reported in the RNAGym collection of RNA variant scans (doi:10.1093/molbev/msab373).

B1: Azoarcus group I ribozyme (parent)
chain: GUGCCUUGCGCCGGGAAACCACGCAAGGGAUGGUGUCAAAUUCGGCGAAACCUAAGCGCCCGCCCGGGCGUAUGGCAACGCCGAGCCAAGCUUCGGCGCCUGCGCCGAUGAAGGUGUAGAGACUAGACGGCACCCACCUAAGGCAAACGCUAUGGUGAAGGCAUAGUCCAGGGAGUGGCGAAAGUCACACAAACCGG

Variants of: B1
Test: reverse-splicing fitness (ratio to wild type); higher = more active; in vitro selection; Mg2+ level not given
Procedure, shortened: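 An in vitro group I ribozyme library with randomized positions was T7-transcribed and gel-purified. In triplicate, 10 pmol RNA in EPPS pH 7.5 was reacted with 50 pmoles of a 30-nt RNA substrate for 1 h at 37 °C across several added MgCl2 levels (1–48 mM), then stopped with EDTA. Products were reverse transcribed from a substrate-complementary primer, PCR-amplified and sequenced (HiSeq 4000). Fitness is a variant's read proportion after selection over that before, normalised to wild type.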

In order of rising reverse-splicing fitness:
1. A111G A120U A145C C150U C169G U176G  0.00177
2. A111G A120U A145C C150G C169G U176C  0.0019
3. A111G A120U A145C C150U C169A U176G  0.00196
4. A111G A120U A145C C150G C169A U176A  0.00204
5. A111G A120U A145C C150U C169U U176G  0.00212
6. A111G A120U A145C C150G C169G U176G  0.00213
7. A111G A120U A145C C150G C169A U176G  0.00216
8. A111G A120U A145C C150G C169U U176G  0.00225
9. A111G A120U A145C C150G C169U U176C  0.0023
10. A111G A120U A145C C150G C169A U176C  0.00245
11. A111G A120U A145G C150A C169G U176G  0.00256
12. A111G A120U A145C C150U C169A U176A  0.00259
13. A111G A120U A145C C150G C169U U176A  0.00272
14. A111G A120U A145G C150A C169A U176G  0.00273
15. A111G A120U A145C C150U C169G U176C  0.0028
16. A111G A120U A145C C150U C169U U176C  0.00282
17. A111G A120U A145C C150G C169G U176A  0.00296
18. A111G A120U A145G C150G C169G U176G  0.00311
19. A111G A120U A145G C150G C169U U176G  0.00319
20. A111G A120U A145C C169U U176G  0.00329
21. A111G A120G C150G U176G  0.00356
22. A111G A120U A145G C150A C169A U176C  0.00368
23. A111G A120G C150G C169G U176G  0.00386
24. A111G A120U A145G C150G C169G U176C  0.00396
25. A111G A120U A145G C150G U176G  0.00403
26. A111G A120U A145C C150U C169G U176A  0.00436
27. A111G A120G C169A U176G  0.00449
28. A111G A120U A145G C150U C169A U176A  0.00469
29. A111G A120U A145C C150G U176G  0.0047
30. A111G A120U A145G C150G C169U U176A  0.00497
31. A111G A120G C150G C169G U176C  0.00503
32. A111G A120U A145G C150A C169A U176A  0.00539
33. A111G A120U A145G C150A C169G U176C  0.00584
34. A111G A120G C150U C169A U176G  0.00588
35. A111G A120U A145C C150U C169U U176A  0.00601
36. A111G A120U A145G C150G C169U U176C  0.00697
37. A111G A120U A145G C150G C169G U176A  0.00719
38. A111G A120G C150G C169G U176A  0.0075
39. A111G A120U A145G C150G U176A  0.00779
40. A111G A120U A145G C150G C169A  0.00794
41. A111G A120G C150U C169U U176G  0.00845
42. A111G A120G C150U U176G  0.00879
43. A111G A120U A145G C150A C169G U176A  0.0104
44. A111G A120G C150G U176A  0.011
45. A111G A120G C169U U176G  0.011
46. A111G A120U A145C C150G U176A  0.0114
47. A111G A120U A145G C150A U176G  0.0119
48. A111G A120U A145G C150G C169G  0.0123
49. A111G A120U A145C C169U U176C  0.0146
50. A111G A120U A145G C150G C169U  0.0149
51. A111G A120U A145C C150G U176C  0.0153
52. A111G A120G C150G C169A  0.0164
53. A111G A120G C150G U176C  0.0173
54. A111G A120U A145G C150G U176C  0.0188
55. A111G A120U A145C C169U U176A  0.0207
56. A111G A120G C150A C169A  0.0242
57. A111G A120G C150G C169G  0.0259
58. A111G A120G C150G C169U  0.0264
59. A111G A120G C150U C169A U176A  0.0291
60. A111G A120G C150A C169U  0.0298
61. A111G A120G C150A C169G  0.0355
62. A111G A120G C150U C169A U176C  0.0419
63. A111G A120U A145C C150A  0.0434
64. A111G A120U A145C C150U U176G  0.0448
65. A111G A120G C169A U176A  0.0455
66. A111G A120G C150U U176A  0.0505
67. A111G A120U A145G C150A U176A  0.0506
68. A111G A120G C150U C169U U176A  0.0545
69. A111G A120U A145C C150U U176C  0.055
70. A111G A120U A145G C150A U176C  0.0581
71. A111G A120G C150U C169U U176C  0.0607
72. A111G A120G C169A U176C  0.0737
73. A111G A120G C150U U176C  0.0801
74. A111G A120G C169U U176A  0.0845
75. A111G A120U A145C C150U U176A  0.0932
76. A111G A120G C169U U176C  0.0969
77. A111G A120U A145C C150G  0.116
78. A111G A120G C169A  0.165
79. A111G A120G C169U  0.236
80. A111G A120U A145C C150U  0.264
81. A111G A120G C169G  0.321
82. A111G A120U A145G  0.667
83. A111G A120U A145C  0.701
84. A111G A120U  0.785
